Test results as given in patent publication US20180155451A1 (published 2018).

T1: FcγRIIb extracellular domain with C-terminal His tag (human, UniProt P31994 43-217)
T1 construct: extracellular domain; Soluble receptor expressed in FreeStyle293 cells; analyte in Biacore; also called FcgRIIb; 2b; not shown: His tag at the C terminus
T1 sequence (looked up): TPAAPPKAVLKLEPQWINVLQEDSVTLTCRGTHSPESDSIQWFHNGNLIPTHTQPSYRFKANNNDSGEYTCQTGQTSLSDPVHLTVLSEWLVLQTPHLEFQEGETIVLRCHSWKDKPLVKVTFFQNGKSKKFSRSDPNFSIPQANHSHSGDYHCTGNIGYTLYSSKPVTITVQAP

B1: GpH7-A5/GpH7-B3 variant I336_13S/GpL16-k0 (antibody, human IgG1, kappa)
heavy 1: not shown
heavy 2: not shown
light: DIVMTQSPLSLPVTPGEPASISCQASESLVHSNRNTYLHWYLQKPGQSPQLLIYKVSNRFSGVPDRFSGSGSGTDFTLKISRVEAEDVGVYYCSQNTHVPPTFGQGTKVEIERTVAAPSVFIFPPSDEQLKSGTASVVCLLNNFYPREAKVQWKVDNALQSGNSQESVTEQDSKDSTYSLSSTLTLSKADYEKHKVYACEVTHQGLSSPVTKSFNRGEC
notes: He Ab: heterodimerized anti-glypican-3 IgG1, substitution in one H chain only; also called He Ab I336S
B2: GpH7-A5/GpH7-B3 variant P329_12R/GpL16-k0 (antibody, human IgG1, kappa)
heavy 1: not shown
heavy 2: not shown
light: B1 light
notes: He Ab: substitution in one H chain only; also called He Ab P329R
B3: GpH7-A5/GpH7-B3 variant P329_18N/GpL16-k0 (antibody, human IgG1, kappa)
heavy 1: not shown
heavy 2: not shown
light: B1 light
notes: He Ab: heterodimerized anti-glypican-3 IgG1, substitution in one H chain only; also called He Ab P329N
B4: GpH7-A5/GpH7-B3 variant P329_02A/GpL16-k0 (antibody, human IgG1, kappa)
heavy 1: not shown
heavy 2: not shown
light: B1 light
notes: He Ab: heterodimerized anti-glypican-3 IgG1, substitution in one H chain only; also called He Ab P329A
B5: GpH7-A5/GpH7-B3 variant T335_11K/GpL16-k0 (antibody, human IgG1, kappa)
heavy 1: not shown
heavy 2: not shown
light: B1 light
notes: He Ab: heterodimerized anti-glypican-3 IgG1, substitution in one H chain only; also called He Ab T335K
B6: GpH7-A5/GpH7-B3 variant L328_05P/GpL16-k0 (antibody, human IgG1, kappa)
heavy 1: not shown
heavy 2: not shown
light: B1 light
notes: He Ab: heterodimerized anti-glypican-3 IgG1, substitution in one H chain only; also called He Ab L328P
B7: GpH7-A5/GpH7-B3 variant L328_18N/GpL16-k0 (antibody, human IgG1, kappa)
heavy 1: not shown
heavy 2: not shown
light: B1 light
notes: He Ab: heterodimerized anti-glypican-3 IgG1, substitution in one H chain only; also called He Ab L328N
B8: GpH7-A5/GpH7-B3 variant I336_19Q/GpL16-k0 (antibody, human IgG1, kappa)
heavy 1: not shown
heavy 2: not shown
light: B1 light
notes: He Ab: heterodimerized anti-glypican-3 IgG1, substitution in one H chain only; also called He Ab I336Q
B9: GpH7-A5/GpH7-B3 variant P329_19Q/GpL16-k0 (antibody, human IgG1, kappa)
heavy 1: not shown
heavy 2: not shown
light: B1 light
notes: He Ab: heterodimerized anti-glypican-3 IgG1, substitution in one H chain only; also called He Ab P329Q
B10: GpH7-A5/GpH7-B3 variant P329_07I/GpL16-k0 (antibody, human IgG1, kappa)
heavy 1: not shown
heavy 2: not shown
light: B1 light
notes: He Ab: heterodimerized anti-glypican-3 IgG1, substitution in one H chain only; also called He Ab P329I
B11: GpH7-A5/GpH7-B3 variant I336_20W/GpL16-k0 (antibody, human IgG1, kappa)
heavy 1: not shown
heavy 2: not shown
light: B1 light
notes: He Ab: heterodimerized anti-glypican-3 IgG1, substitution in one H chain only; also called He Ab I336W
B12: GpH7-A5/GpH7-B3 variant T335_12R/GpL16-k0 (antibody, human IgG1, kappa)
heavy 1: not shown
heavy 2: not shown
light: B1 light
notes: He Ab: heterodimerized anti-glypican-3 IgG1, substitution in one H chain only; also called He Ab T335R
B13: GpH7-A5/GpH7-B3 variant P329_08L/GpL16-k0 (antibody, human IgG1, kappa)
heavy 1: not shown
heavy 2: not shown
light: B1 light
notes: He Ab: heterodimerized anti-glypican-3 IgG1, substitution in one H chain only; also called He Ab P329L
B14: GpH7-A5/GpH7-B3 variant P329_10E/GpL16-k0 (antibody, human IgG1, kappa)
heavy 1: not shown
heavy 2: not shown
light: B1 light
notes: He Ab: substitution in one H chain only; also called He Ab P329E
B15: GpH7-A5/GpH7-B3 variant I336_15Y/GpL16-k0 (antibody, human IgG1, kappa)
heavy 1: not shown
heavy 2: not shown
light: B1 light
notes: He Ab: heterodimerized anti-glypican-3 IgG1, substitution in one H chain only; also called He Ab I336Y
B16: GpH7-A5/GpH7-B3 variant P329_11K/GpL16-k0 (antibody, human IgG1, kappa)
heavy 1: not shown
heavy 2: not shown
light: B1 light
notes: He Ab: substitution in one H chain only; also called He Ab P329K
B17: GpH7-A5/GpH7-B3 variant P329_03V/GpL16-k0 (antibody, human IgG1, kappa)
heavy 1: not shown
heavy 2: not shown
light: B1 light
notes: He Ab: heterodimerized anti-glypican-3 IgG1, substitution in one H chain only; also called He Ab P329V
B18: GpH7-A5/GpH7-B3 variant P329_20W/GpL16-k0 (antibody, human IgG1, kappa)
heavy 1: not shown
heavy 2: not shown
light: B1 light
notes: He Ab: heterodimerized anti-glypican-3 IgG1, substitution in one H chain only; also called He Ab P329W
B19: GpH7-A5/GpH7-B3 variant L328_01G/GpL16-k0 (antibody, human IgG1, kappa)
heavy 1: not shown
heavy 2: not shown
light: B1 light
notes: He Ab: heterodimerized anti-glypican-3 IgG1, substitution in one H chain only; also called He Ab L328G
B20: GpH7-A5/GpH7-B3 variant P329_16H/GpL16-k0 (antibody, human IgG1, kappa)
heavy 1: not shown
heavy 2: not shown
light: B1 light
notes: He Ab: heterodimerized anti-glypican-3 IgG1, substitution in one H chain only; also called He Ab P329H
B21: GpH7-A5/GpH7-B3 variant P329_06M/GpL16-k0 (antibody, human IgG1, kappa)
heavy 1: not shown
heavy 2: not shown
light: B1 light
notes: He Ab: heterodimerized anti-glypican-3 IgG1, substitution in one H chain only; also called He Ab P329M
B22: GpH7-A5/GpH7-B3 variant P329_04F/GpL16-k0 (antibody, human IgG1, kappa)
heavy 1: not shown
heavy 2: not shown
light: B1 light
notes: He Ab: heterodimerized anti-glypican-3 IgG1, substitution in one H chain only; also called He Ab P329F
B23: GpH7-A5/GpH7-B3 variant P331_01G/GpL16-k0 (antibody, human IgG1, kappa)
heavy 1: not shown
heavy 2: not shown
light: B1 light
notes: He Ab: heterodimerized anti-glypican-3 IgG1, substitution in one H chain only; also called He Ab P331G
B24: GpH7-A5/GpH7-B3 variant P329_09D/GpL16-k0 (antibody, human IgG1, kappa)
heavy 1: not shown
heavy 2: not shown
light: B1 light
notes: He Ab: substitution in one H chain only; also called He Ab P329D
B25: GpH7-A5/GpH7-B3 variant P329_13S/GpL16-k0 (antibody, human IgG1, kappa)
heavy 1: not shown
heavy 2: not shown
light: B1 light
notes: He Ab: heterodimerized anti-glypican-3 IgG1, substitution in one H chain only; also called He Ab P329S
B26: GpH7-A5/GpH7-B3 variant P329_15Y/GpL16-k0 (antibody, human IgG1, kappa)
heavy 1: not shown
heavy 2: not shown
light: B1 light
notes: He Ab: heterodimerized anti-glypican-3 IgG1, substitution in one H chain only; also called He Ab P329Y
B27: GpH7-A5/GpH7-B3 variant P329_14T/GpL16-k0 (antibody, human IgG1, kappa)
heavy 1: not shown
heavy 2: not shown
light: B1 light
notes: He Ab: heterodimerized anti-glypican-3 IgG1, substitution in one H chain only; also called He Ab P329T

Biological target: T2, FcγRIa extracellular domain with C-terminal His tag (human, UniProt P12314 16-292)
T2 construct: extracellular domain; Soluble receptor expressed in FreeStyle293 cells; analyte in Biacore; also called FcgRI; FcgRIa; not shown: His tag at the C terminus
T2 sequence (P12314 16-292): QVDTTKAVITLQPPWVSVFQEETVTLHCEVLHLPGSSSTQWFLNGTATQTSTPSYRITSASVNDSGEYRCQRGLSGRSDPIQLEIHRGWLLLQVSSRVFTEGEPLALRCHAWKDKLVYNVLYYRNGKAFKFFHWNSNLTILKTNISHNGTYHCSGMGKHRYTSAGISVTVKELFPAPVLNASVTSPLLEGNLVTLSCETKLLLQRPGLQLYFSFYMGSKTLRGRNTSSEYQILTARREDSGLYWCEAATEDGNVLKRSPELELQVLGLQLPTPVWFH
Assay: SPR (Biacore); He/Con_1a divided by He/Con_2b (FcγRIIb)
Protocol: (§1) The heterodimerized antibodies He Abs in which one of the H chains was introduced with an alteration were assayed for their binding activities to each activating FcγR and inhibitory FcγR according to the method described in Example 4. […] The activating FcγRs in FIGS. 26, 27, 28, and 29 are FcγRIa, FcγRIIa (R), FcγRIIa (H), and FcγRIIIa, respectively.
(§2) Analysis of interaction between objective antibody and the FcγR was carried out using Biacore T100 (GE Healthcare). HBS-EP+ (GE Healthcare) was used as the running buffer, and the measurement temperature was set to 25° C. Chips produced by immobilizing the antigen peptide by the amine coupling method to a Series S Sencor Chip CM5 (GE Healthcare), or alternatively, chips produced by allowing preliminarily biotinylated antigen peptides to interact with and immobilize onto a Series S Sensor Chip SA (certified) (GE Healthcare) were used. Antibodies of interest were captured onto an antigen peptide-immobilized chip, and allowed to interact to each FcγR diluted with running buffer. To regenerate and repeatedly use the chip, the antibodies captured on the chip were washed off by reacting 10 mM glycine-HCl, pH 1.5.

Row | He_1a/2b (Ia/IIb) | Binder
1 | 1.22 | B1
2 | 4.22 | B2
3 | 2.29 | B3
4 | 2.52 | B4
5 | 1.22 | B5
6 | 1.42 | B6
7 | 1.22 | B7
8 | 1.78 | B8
9 | 2.31 | B9
10 | 2.72 | B10
11 | 4.28 | B11
12 | 1.23 | B12
13 | 2.95 | B13
14 | 1.5 | B14
15 | 1.51 | B15
16 | 4.17 | B16
17 | 2.53 | B17
18 | 2.15 | B18
19 | 1.21 | B19
20 | 2.45 | B20
21 | 2.94 | B21
22 | 2.88 | B22
23 | 1.88 | B23
24 | 1.45 | B24
25 | 2.27 | B25
26 | 2.09 | B26
27 | 2.37 | B27

Biological target: T2, FcγRIa extracellular domain with …
Assay: SPR (Biacore), antibody captured on antigen peptide chip, FcγR as analyte; binding relative to GpH7-A5/GpH7-B3/GpL16-k0 = 100
Protocol: as §1, §2

Row | He/Con_1a (Ia binding) | Binder
28 | 102 % of control (control = 100) | B1
29 | 74.3 % of control (control = 100) | B2
30 | 92.4 % of control (control = 100) | B3
31 | 102 % of control (control = 100) | B4
32 | 111 % of control (control = 100) | B5
33 | 92.2 % of control (control = 100) | B6
34 | 98.7 % of control (control = 100) | B7
35 | 104 % of control (control = 100) | B8
36 | 70.7 % of control (control = 100) | B9
37 | 94.1 % of control (control = 100) | B10
38 | 86.7 % of control (control = 100) | B11
39 | 113 % of control (control = 100) | B12
40 | 85.7 % of control (control = 100) | B13
41 | 78.8 % of control (control = 100) | B14
42 | 103 % of control (control = 100) | B15
43 | 70.4 % of control (control = 100) | B16
44 | 97.4 % of control (control = 100) | B17
45 | 96.9 % of control (control = 100) | B18
46 | 97.2 % of control (control = 100) | B19
47 | 95.6 % of control (control = 100) | B20
48 | 85.3 % of control (control = 100) | B21
49 | 92.7 % of control (control = 100) | B22
50 | 85.3 % of control (control = 100) | B23
51 | 77.6 % of control (control = 100) | B24
52 | 93.3 % of control (control = 100) | B25
53 | 95.6 % of control (control = 100) | B26
54 | 89.7 % of control (control = 100) | B27

Biological target: T1, FcγRIIb extracellular domain with …
Assay: as above
Protocol: as §1, §2

Row | He/Con_2b (IIb binding) | Binder
55 | 83.7 % of control (control = 100) | B1
56 | 17.6 % of control (control = 100) | B2
57 | 40.4 % of control (control = 100) | B3
58 | 40.5 % of control (control = 100) | B4
59 | 91 % of control (control = 100) | B5
60 | 65.1 % of control (control = 100) | B6
61 | 80.8 % of control (control = 100) | B7
62 | 58.2 % of control (control = 100) | B8
63 | 30.7 % of control (control = 100) | B9
64 | 34.6 % of control (control = 100) | B10
65 | 20.3 % of control (control = 100) | B11
66 | 91.9 % of control (control = 100) | B12
67 | 29.1 % of control (control = 100) | B13
68 | 52.7 % of control (control = 100) | B14
69 | 68.2 % of control (control = 100) | B15
70 | 16.9 % of control (control = 100) | B16
71 | 38.5 % of control (control = 100) | B17
72 | 45.1 % of control (control = 100) | B18
73 | 80.2 % of control (control = 100) | B19
74 | 39.1 % of control (control = 100) | B20
75 | 29.1 % of control (control = 100) | B21
76 | 32.2 % of control (control = 100) | B22
77 | 45.4 % of control (control = 100) | B23
78 | 53.5 % of control (control = 100) | B24
79 | 41 % of control (control = 100) | B25
80 | 45.7 % of control (control = 100) | B26
81 | 37.9 % of control (control = 100) | B27
